Here are results for two molecules from paper PMC11953334, “Substrates bind to residues lining the ring of asymmetrically engaged bacterial proteasome activator Bpa” (Nature Communications, 2025).

Data set [1] concerns the molecule itself. The experiment in a line: cross-linking + SEC.
Data set [2] concerns the molecule itself. The data set is described as follows: negative stain EM.
Data set [3] has as its target T1, 20S CP α-subunit (M. tuberculosis H37Rv, UniProt P9WHU1 1-248).
T1 construct: also called proteasomal α-subunits; α-ring
The experiment in a line: cryo-EM structure. As to conditions: both partners purified.

T1 sequence (P9WHU1 whole entry): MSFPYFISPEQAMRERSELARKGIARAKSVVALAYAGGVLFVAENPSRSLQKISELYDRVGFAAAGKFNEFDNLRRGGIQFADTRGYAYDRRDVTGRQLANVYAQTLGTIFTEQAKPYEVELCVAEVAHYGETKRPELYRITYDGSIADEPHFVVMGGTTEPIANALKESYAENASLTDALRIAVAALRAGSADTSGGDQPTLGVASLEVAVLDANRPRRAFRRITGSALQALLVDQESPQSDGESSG

B1: truncated Bpa variant lacking the flexible N- and C-terminal segments (Bpa36-139) (domain or fragment)
chain: SLTDLVEQPAKVMRIGTMIKQLLEEVRAAPLDEASRNRLRDIHATSIRELEDGLAPELREELDRLTLPFNEDAVPSDAELRIAQAQLVGWLEGLFHGIQTALFA
notes: Dodecameric ring; also called substrate-captured Bpa; copies: 12
Take B1: the “stoichiometry N” value came out at 12 in data set [1] and 24 in data set [2].

B2: bacterial proteasome activator Bpa, full-length, wild-type (natural protein)
chain: MVIGLSTGSDDDDVEVIGGVDPRLIAVQENDSDESSLTDLVEQPAKVMRIGTMIKQLLEEVRAAPLDEASRNRLRDIHATSIRELEDGLAPELREELDRLTLPFNEDAVPSDAELRIAQAQLVGWLEGLFHGIQTALFAQQMAARAQLQQMRQGALPPGVGKSGQHGHGTGQYL
notes: also called wild-type Bpa ring; Bpa12; copies: 12
As to B2, in data set [3], the binding result is on record as “binds”.
